{"source": "paper PMC4290037", "about": "“Purification and Characterization of Glucose-6-Phosphate Dehydrogenase from Camel Liver” (Enzyme Research, 2014)", "substrate": "NC(=O)c1ccc[n+]([C@@H]2O[C@H](COP(=O)(O)OP(=O)(O)OC[C@H]3O[C@@H](n4cnc5c(N)ncnc54)[C@H](OP(=O)(O)O)[C@@H]3O)[C@@H](O)[C@H]2O)c1", "test": "purified protein"}
{"protein": "Glucose-6-phosphate dehydrogenase (camel liver G6PD) (Camelus dromedarius) (protein) AEQVALSRNQVCGILREELYQGDAFHQSDTHIFIIMGASGDLAKKKIYPTIWWLFRDGLLPEDTYIVGYARSRLTVADIRKQSEPFFKATPEEKPKLEEFFARNSYVAGQYDDAASYERLNSHMNALHQGSQANRLFYLALPPTVYEAVTKNIRETCMSQTGWNRIIVEKPFGRDLQSSNQLSNHISSLFREDQIYRIDHYLGKEMVQNLMVLRFANRIFGPIWNRDNIACVILTFKEPFGTEGRGGYFDEFGIIRDVMQNHLLQMLCLVAMEKPASTDSDDVRDEKVKVLKCISEVQANNVVLGQYVGNPNGEGEATKGYLDDPTVPRGSITATFAAVVLYVENERWDGVPFILRCGKALNERKAEVRLQFRDVAGDIFQQQCKRNEVVIRVQPNEAVYTKMMTKKPGMFFNPEESELDLTYGNRYKNVKLPDAYERLILDVFCGSQMHFVRSDELREAWRIFTPLLHKIEREKLQPIPYVYGSRGPAEADELMKRVGFQYEGTYKWVNPHKL", "values": [{"measurement": "Km", "result": 81, "unit": "µM"}]}
